# Measurements reported in PMC6559660.
# Columns and labels:
# [1] = target: N-acetylneuraminate lyase from Aliivibrio salmonicida LFI1238, construct with C-terminal His6-tag (Aliivibrio salmonicida LFI1238); test: crystal structure; crystals from 25% PEG 1.5 K and 20% glycerol; space group I222, one molecule in the asymmetric unit; tetramer generated by crystallographic symmetry; 1.65 A
# [2] = target: N-acetylneuraminate lyase from Aliivibrio salmonicida LFI1238, construct with TEV-cleavable N-terminal His6-tag (Aliivibrio salmonicida LFI1238); test: native gel or EMSA; native PAGE of purified AsNAL (2.75 ug) beside NativeMark unstained protein standard
# [3] = target: N-acetylneuraminate lyase from Aliivibrio salmonicida LFI1238, construct with TEV-cleavable N-terminal His6-tag (Aliivibrio salmonicida LFI1238); test: SEC; Superdex 200 prep grade HiLoad 16/60 in 50 mM Tris-HCl pH 7.5, 500 mM NaCl, 5 mM beta-ME, 10% glycerol; room temperature
stoichiometry N [1],stoichiometry N [2],stoichiometry N [3],Substance
4,,,"N-acetylneuraminate lyase from Aliivibrio salmonicida LFI1238, construct with C-terminal His6-tag (enzyme)"
,4,4,"N-acetylneuraminate lyase from Aliivibrio salmonicida LFI1238, construct with TEV-cleavable N-terminal His6-tag (enzyme)"
